Results published in patent US20210139554A1 (published 2021).

Legend:
wild-type human IL-2 = target: T1, wild-type human IL-2 (human, UniProt P60568 21-153); assay: BIACORE
T1 construct: The construct used in ELISA and BIACORE is not described; also called hIL-2; WT IL-2

cynomolgus monkey IL-2 = target: T2, cynomolgus monkey IL-2 (cynomolgus monkey, UniProt Q29615 21-154, limits assumed); assay: BIACORE
T2 construct: also called cyno IL-2
T2 sequence (Q29615 21-154 limits assumed): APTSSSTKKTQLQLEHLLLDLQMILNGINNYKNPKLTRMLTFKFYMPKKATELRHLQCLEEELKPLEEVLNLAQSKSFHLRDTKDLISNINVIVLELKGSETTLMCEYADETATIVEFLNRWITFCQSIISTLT

T1 sequence (P60568 21-153 limits assumed): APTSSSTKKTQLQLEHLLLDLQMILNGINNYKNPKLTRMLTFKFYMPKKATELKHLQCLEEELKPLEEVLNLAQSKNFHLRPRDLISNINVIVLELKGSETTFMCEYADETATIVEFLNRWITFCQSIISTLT

B1: 26H7 (antibody, V domains shown)
VH: EVQLVQSGAEVKKPGESLKISCKGSGYRFTNYWIGWVRQMPGKGLEWMGIIYPGDSDTKYSPSFQGQVTISADKSISTAYLQWSSLKASDTAMYYCARHGGYSGRSYYYGMDVWGQGTAVTVSS
VL: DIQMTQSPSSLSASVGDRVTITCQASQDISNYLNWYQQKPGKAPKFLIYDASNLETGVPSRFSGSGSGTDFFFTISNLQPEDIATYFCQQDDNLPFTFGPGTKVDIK
Q: With B1 as the binder, how does the Kd (wild-type human IL-2) read?
A: ~1.3 nM

B2: 2C3 (antibody, V domains shown)
VH: EVQLVQSGAEVKKPGESLKISCKGSGYRFTSYWIGWVRQMPGKGLEWMGIIYPGDSDTRYSPSFQGQVTISADKSISAAYLQWSSLKASDTAMYYCARQQVAGMLDYWGQGTLVTVSS
VL: EIVLTQSPGTLSLSPGERATLSCRASQSFSSSYLVWYQQKPGQAPRLLIYGASSRATGIPDRFGGSGSGTDFTLTISRLEPEDFAVYYCQQYGSSPLTFGGGTKVEIK
Q: Which Kd (cynomolgus monkey IL-2) does the source give for B2 here?
A: ~1.2 nM
